# Reference: patent US20220220215A1 (CRESCENDO BIOLOGICS, published 2022)
# Residue numbers refer to the chain shown, from its start. In names and notes the source's numbering stands.
# B1: TPP-1290 PD138G7(G109D)-6GS-CD137A-6GS-HSA2 (bispecific antibody)
# chain: EVQLVESGGGVVRPGGSLRLSCAASGFTFDDYAMSWVRQAPGKGLEWVSGITWNGGSTGYADSVKDRFTISRDNAKNSLYLQMNSLRAEDTALYYCVRDKYSYAWSYDDFDIWGQGTMVTVSSGGGGSGGGGSGGGGSGGGGSGGGGSGGGGSEVQLVESGGGLVQPGGSLRLSCAASGFTLSNYWMNWVRQAPGKGLEWVANINQDGSERYYVDSVKGRFTISRDNAKNSLYLQMNSLRAEDTAVYYCARGGEGYGVDHYGLDVSGQGTTVTVSSGGGGSGGGGSGGGGSGGGGSGGGGSGGGGSEVQLVESGGGLVKPGGSLRLSCAASGFTFSNYNMNWVRQAPGKGLEWVSSISSAGTHIYYADSVKGRFTISRDNAKNSLYLQMNSLRAEDTAVYYCARDPHSTGWYKDFDYWGQGTLVTVSS
# B2: TPP-1246 CD137A-6GS-HSA2-6GS-PD138G7(G109D) (bispecific antibody)
# chain: EVQLVESGGGLVQPGGSLRLSCAASGFTLSNYWMNWVRQAPGKGLEWVANINQDGSERYYVDSVKGRFTISRDNAKNSLYLQMNSLRAEDTAVYYCARGGEGYGVDHYGLDVSGQGTTVTVSSGGGGSGGGGSGGGGSGGGGSGGGGSGGGGSEVQLVESGGGLVKPGGSLRLSCAASGFTFSNYNMNWVRQAPGKGLEWVSSISSAGTHIYYADSVKGRFTISRDNAKNSLYLQMNSLRAEDTAVYYCARDPHSTGWYKDFDYWGQGTLVTVSSGGGGSGGGGSGGGGSGGGGSGGGGSGGGGSEVQLVESGGGVVRPGGSLRLSCAASGFTFDDYAMSWVRQAPGKGLEWVSGITWNGGSTGYADSVKDRFTISRDNAKNSLYLQMNSLRAEDTALYYCVRDKYSYAWSYDDFDIWGQGTMVTVSS
# B3: TPP-1293 (PDBlocker1.92-6GS-CD137A-6GS-HSA2) (bispecific antibody)
# chain: EVQLVESGGGLVKPGGSLRLSCAASGFTFSDESMTWMRQAPGKGLEWVSYISSGGGVKFYADSVKGRFTISRDNAKNSLYLQMNSLRAEDTAVYYCAREAPLRLGESPHDAFDISGQGTMVTVSSGGGGSGGGGSGGGGSGGGGSGGGGSGGGGSEVQLVESGGGLVQPGGSLRLSCAASGFTLSNYWMNWVRQAPGKGLEWVANINQDGSERYYVDSVKGRFTISRDNAKNSLYLQMNSLRAEDTAVYYCARGGEGYGVDHYGLDVSGQGTTVTVSSGGGGSGGGGSGGGGSGGGGSGGGGSGGGGSEVQLVESGGGLVKPGGSLRLSCAASGFTFSNYNMNWVRQAPGKGLEWVSSISSAGTHIYYADSVKGRFTISRDNAKNSLYLQMNSLRAEDTAVYYCARDPHSTGWYKDFDYWGQGTLVTVSS
# notes: The chain is therefore built from the parts named in the composition
# B4: TPP-1439 PD138G7(G109D)-6GS-PD138G7(G109D)-6GS-CD137A-7-6GS-HSA2 (bispecific antibody)
# chain: EVQLVESGGGVVRPGGSLRLSCAASGFTFDDYAMSWVRQAPGKGLEWVSGITWNGGSTGYADSVKDRFTISRDNAKNSLYLQMNSLRAEDTALYYCVRDKYSYAWSYDDFDIWGQGTMVTVSSGGGGSGGGGSGGGGSGGGGSGGGGSGGGGSEVQLVESGGGVVRPGGSLRLSCAASGFTFDDYAMSWVRQAPGKGLEWVSGITWNGGSTGYADSVKDRFTISRDNAKNSLYLQMNSLRAEDTALYYCVRDKYSYAWSYDDFDIWGQGTMVTVSSGGGGSGGGGSGGGGSGGGGSGGGGSGGGGSEVQLVESGGGLVQPGGSLRLSCAASGFTLSNYWMNWVRQAPGKGLEWVANINQDGSERYYVDSVKGRFTISRDNAKNSLYLQMNSLRAEDTAVYYCARGGEGYGVDHYGLDVSGQGTTVTVSSGGGGSGGGGSGGGGSGGGGSGGGGSGGGGSEVQLVESGGGLVKPGGSLRLSCAASGFTFSNYNMNWVRQAPGKGLEWVSSISSAGTHIYYADSVKGRFTISRDNAKNSLYLQMNSLRAEDTAVYYCARDPHSTGWYKDFDYWGQGTLVTVSS
# notes: Single-chain fusion of four VH single domains, two PD-1 arms
# B5: TPP-1438 CD137A-6GS-HSA2-6GS-PD138G7(G109D)-6GS-PD138G7(G109D) (bispecific antibody)
# chain: EVQLVESGGGLVQPGGSLRLSCAASGFTLSNYWMNWVRQAPGKGLEWVANINQDGSERYYVDSVKGRFTISRDNAKNSLYLQMNSLRAEDTAVYYCARGGEGYGVDHYGLDVSGQGTTVTVSSGGGGSGGGGSGGGGSGGGGSGGGGSGGGGSEVQLVESGGGLVKPGGSLRLSCAASGFTFSNYNMNWVRQAPGKGLEWVSSISSAGTHIYYADSVKGRFTISRDNAKNSLYLQMNSLRAEDTAVYYCARDPHSTGWYKDFDYWGQGTLVTVSSGGGGSGGGGSGGGGSGGGGSGGGGSGGGGSEVQLVESGGGVVRPGGSLRLSCAASGFTFDDYAMSWVRQAPGKGLEWVSGITWNGGSTGYADSVKDRFTISRDNAKNSLYLQMNSLRAEDTALYYCVRDKYSYAWSYDDFDIWGQGTMVTVSSGGGGSGGGGSGGGGSGGGGSGGGGSGGGGSEVQLVESGGGVVRPGGSLRLSCAASGFTFDDYAMSWVRQAPGKGLEWVSGITWNGGSTGYADSVKDRFTISRDNAKNSLYLQMNSLRAEDTALYYCVRDKYSYAWSYDDFDIWGQGTMVTVSS
# notes: as for B4
# B6: TPP-799 PSMA-6GS-CD137-6GS-HSA (bispecific antibody)
# chain: EVQLVESGGGVVQPGRSLRLSCAASGFSFSGYGMHWVRQAPGKGLEWVAYISYDGSNKYYADSVKGRFTISRDNSKNTLYLQMNSLRAEDTAVYYCAKDPAWGLRLGESSSYDFDIWGQGTMVTVSSGGGGSGGGGSGGGGSGGGGSGGGGSGGGGSEVQLVESGGGVVQPGGSLRLSCAASGFTFSNYGMHWVRQAPGKGLEWVAVISNDGNTKTYADSVKGRFTISRDNSKNTLYLQMNSLRAEDTAVYYCAQDETTTVTASYYFDYWGQGTLVTVSSGGGGSGGGGSGGGGSGGGGSGGGGSGGGGSEVQLVESGGGLVQPGRSLRLSCAASGFTFHHYAMHWVRQAPGKGLEWVSGISWNGNKITYADSVKGRFTISRDNAKNSLYLQMNSLRAEDTALYYCVRDSSLFIVGAPTFEHWGRGTLVTVSS
# B7: TPP-805 PSMA-6GS-CD137-6-6GS-HSA (bispecific antibody)
# chain: B6 chain with V168L, T235M, A245T
# B8: TPP-806 PSMA-6GS-CD137-6GS-HSA (bispecific antibody)
# chain: B6 chain with V168L, A245T
# B9: TPP-801 PSMA-6GS-CD137-6GS-HSA (bispecific antibody)
# chain: EVQLVESGGGVVQPGRSLRLSCAASGFSFSGYGMHWVRQAPGKGLEWVAYISYDGSNKYYADSVKGRFTISRDNSKNTLYLQMNSLRAEDTAVYYCAKDPAWGLRLGESSSYDFDIWGQGTMVTVSSGGGGSGGGGSGGGGSGGGGSGGGGSGGGGSEVQLVESGGGVVQPGGSLRLSCAASGFTFSNYGMHWVRQAPGKGLEWVAVISNDGNTKTYADSVKGRFTISRDNSKNTLYLQMNSLRAEDTAVYYCAQDETTTVTASYYFDYWGQGTLVTVSSGGGGSGGGGSGGGGSGGGGSGGGGSGGGGSEVQLVESGGGLVKPGGSLRLSCAASGFTFSNYNMNWVRQAPGKGLEWVSSISSAGTHIYYADSVKGRFTISRDNAKNSLYLQMNSLRAEDTAVYYCARDPHSTGWYKDFDYWGQGTLVTVSS
# Molecular target: T1, human CD137 expressed on cells (Jurkat human CD137 NF-kB luciferase reporter cells; human CD8+ T cells) (human, UniProt Q07011 24-255)
# Test: cell-based or functional assay
row,Binder,Jurkat-CD137/CHO-PD-1 Reporter Assay EC50 [nM]
1,B1,0.02
2,B2,0.0729
3,B3,0.0113
4,B4,0.0145
5,B5,0.00466

# Molecular target: T2, recombinant Fc-tagged ectodomain of cynomolgus PD1 (Acro Biosystems PD1-C5254) (cynomolgus macaque, UniProt B0LAJ3 25-170)
# T2 construct: Bought protein; also called Cyno PD1; cynomolgus macaque PD1; not shown: Fc tag and any linker to it
# Test: SPR, Biacore 8K, single-cycle kinetics; Fc-tagged ectodomain captured on Protein G chip; 1:1 model
# Procedure, shortened: (§1)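 Single-cycle kinetics: Humabody VH constructs injected 90 s at low to high nanomolar concentrations over captured Fc-tagged ectodomains. Surface regenerated with 10 mM glycine pH 1.5. Kinetics fitted to a 1:1 binding model, including two-PD-1-arm constructs.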
Binder,Kd [nM],koff [s⁻¹],kon [M⁻¹ s⁻¹]
B1,17.4,0.00539,310000
B2,20.5,0.00464,227000
B3,3.41,0.000407,119000

# Molecular target: T3, recombinant Fc-tagged ectodomain of human CD137 (Acro Biosystems 41B-H5258) (human, UniProt Q07011 24-186)
# T3 construct: Bought protein; not shown: Fc tag
# Test: as above
# Procedure, shortened: as §1
Binder,Kd [nM],koff [s⁻¹],kon [M⁻¹ s⁻¹]
B1,0.652,0.000185,283000
B2,0.541,0.000187,345000
B3,2.57,0.000151,58600
B4,0.506,0.000107,800000
B5,0.62,0.00011,500000

# Molecular target: T4, recombinant Fc-tagged ectodomain of human PD1 (Acro Biosystems PD1-H5257) (human, UniProt Q15116 25-170)
# T4 construct: Bought protein; not shown: Fc tag
# Test: as above
# Procedure, shortened: as §1
Binder,Kd [nM],koff [s⁻¹],kon [M⁻¹ s⁻¹]
B1,7.07,0.00244,345000
B2,8.38,0.00202,241000
B3,2.31,0.000212,91500

# Molecular target: T5, recombinant Fc-tagged ectodomain of cynomolgus CD137 (R&D S9324-4b) (cynomolgus macaque, UniProt A9YYE7 24-186)
# T5 construct: Bought protein; also called Cyno CD137; cynomolgus macaque CD137; not shown: Fc tag and any linker to it
# Test: as above
# Procedure, shortened: as §1
Binder,Kd [nM],koff [s⁻¹],kon [M⁻¹ s⁻¹]
B1,1.03,0.000255,247000
B2,0.842,0.000267,317000
B3,4.34,0.000226,52200

# Molecular target: T1, human CD137 expressed on cells (Jurkat …)
# Test: cell-based or functional assay
# Remark: another data set of the same source
row,Binder,Jurkat-CD137/CHO-PSMA Reporter Assay EC50 [nM]
1,B6,5.6
2,B7,16
3,B8,9.3
4,B9,1.3

# Molecular target: T4, recombinant Fc-tagged ectodomain of …
# Test: SPR, Biacore 8K, single-cycle kinetics; Fc-tagged ectodomain captured on Protein G chip; 1:1 model (construct with two PD-1 arms)
# Experimental: Binding of Humabody® VH constructs was measured using a single-cycle kinetics method using the BIAcore 8K instrument with 90 second sample injections with a sample concentration range of low nanomolar to high nanomolar. […] The Protein G sensor surface was regenerated with a 20 second injection of 10 mM Glycine buffer, pH 1.5 (GE Healthcare BR100354). Data were analysed using a 1:1 binding model in Biacore Insight Evaluation software, including Humabody® VH constructs with two PD-1 arms.
Binder,Kd [nM],koff [s⁻¹],kon [M⁻¹ s⁻¹]
B4,0.0683,5.12e-05,750000
B5,0.0951,5.02e-05,527000

# Molecular target: T1, human CD137 expressed on cells (Jurkat …)
# Test: cell-based or functional assay
# Remark: another data set of the same source
row,Binder,"CD8+ T-cell activation assay - IL-2 release, EC50 [nM]"
1,B1,0.199
2,B2,0.176
3,B3,0.146
